Tested on: Escherichia coli TOP10
Experiment: shrunken log2 fold change of peptide-encoding DNA abundance (4.5 h post-induction vs induction); higher = less antimicrobial activity (less host growth inhibition)
Details: time post-induction: 4.5 h; library: site-saturation at positions 5, 18, 19, 20
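Further: peptides expressed intracellularly from a pBAD plasmid library in pooled LB shake-flask culture, induced with 0.3% L-arabinose, DNA abundance read by NGS, three biological replicates, DESeq2 with apeglm shrinkage.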

Row | Sequence | shrunken log2 fold change
1 | RRIRIRPPRLPRPRPRPMVMPRP | -0.138
2 | RRIRIRPPRLPRPRPRPMYMPRP | 0.00884
3 | RRIRIRPPRLPRPRPRPMYPPRP | -0.0642
4 | RRIRIRPPRLPRPRPRPNCLPRP | -0.602
5 | RRIRIRPPRLPRPRPRPNCNPRP | -0.845
6 | RRIRIRPPRLPRPRPRPNCRPRP | -0.0156
7 | RRIRIRPPRLPRPRPRPNDSPRP | -0.137
8 | RRIRIRPPRLPRPRPRPNEEPRP | -0.179
9 | RRIRIRPPRLPRPRPRPNEMPRP | -0.0277
10 | RRIRIRPPRLPRPRPRPNFCPRP | -0.162
11 | RRIRIRPPRLPRPRPRPNFSPRP | -0.26
12 | RRIRIRPPRLPRPRPRPNGAPRP | 0.0157
13 | RRIRIRPPRLPRPRPRPNGHPRP | -0.469
14 | RRIRIRPPRLPRPRPRPNGIPRP | -0.337
15 | RRIRIRPPRLPRPRPRPNGPPRP | 0.00676
16 | RRIRIRPPRLPRPRPRPNGSPRP | 0.0061
17 | RRIRIRPPRLPRPRPRPNHAPRP | -0.0782
18 | RRIRIRPPRLPRPRPRPNHYPRP | -0.492
19 | RRIRIRPPRLPRPRPRPNIRPRP | -1.14
20 | RRIRIRPPRLPRPRPRPNKDPRP | -0.818
21 | RRIRIRPPRLPRPRPRPNKIPRP | -0.634
22 | RRIRIRPPRLPRPRPRPNKVPRP | -0.393
23 | RRIRIRPPRLPRPRPRPNLHPRP | -0.623
24 | RRIRIRPPRLPRPRPRPNLIPRP | -0.654
25 | RRIRIRPPRLPRPRPRPNLWPRP | -0.132

Row | Sequence | shrunken log2 fold change
26 | RRIRIRPPRLPRPRPRPNNTPRP | -1.09
27 | RRIRIRPPRLPRPRPRPNPPPRP | 0.125
28 | RRIRIRPPRLPRPRPRPNQHPRP | -0.337
29 | RRIRIRPPRLPRPRPRPNRGPRP | -0.203
30 | RRIRIRPPRLPRPRPRPNRYPRP | -0.295
31 | RRIRIRPPRLPRPRPRPNSEPRP | -0.686
32 | RRIRIRPPRLPRPRPRPNSFPRP | -0.391
33 | RRIRIRPPRLPRPRPRPNSGPRP | -0.177
34 | RRIRIRPPRLPRPRPRPNVMPRP | -0.328
35 | RRIRIRPPRLPRPRPRPNVYPRP | -0.228
36 | RRIRIRPPRLPRPRPRPNWPPRP | -0.146
37 | RRIRIRPPRLPRPRPRPNYLPRP | -0.171
38 | RRIRIRPPRLPRPRPRPNYMPRP | -0.177
39 | RRIRIRPPRLPRPRPRPPAIPRP | 0.00229
40 | RRIRIRPPRLPRPRPRPPDQPRP | -0.0864
41 | RRIRIRPPRLPRPRPRPPEAPRP | 0.276
42 | RRIRIRPPRLPRPRPRPPEMPRP | -0.291
43 | RRIRIRPPRLPRPRPRPPFCPRP | -0.256
44 | RRIRIRPPRLPRPRPRPPFVPRP | 0.104
45 | RRIRIRPPRLPRPRPRPPGCPRP | 0.354
46 | RRIRIRPPRLPRPRPRPPHEPRP | 0.225
47 | RRIRIRPPRLPRPRPRPPLPPRP | 0.796
48 | RRIRIRPPRLPRPRPRPPMEPRP | -0.0294
49 | RRIRIRPPRLPRPRPRPPMVPRP | -0.572
50 | RRIRIRPPRLPRPRPRPPPYPRP | -0.177

Row | Sequence | shrunken log2 fold change
51 | RRIRIRPPRLPRPRPRPPQIPRP | -0.157
52 | RRIRIRPPRLPRPRPRPPRVPRP | 0.278
53 | RRIRIRPPRLPRPRPRPPTGPRP | 0.209
54 | RRIRIRPPRLPRPRPRPPTRPRP | 0.251
55 | RRIRIRPPRLPRPRPRPPTWPRP | -0.101
56 | RRIRIRPPRLPRPRPRPPWAPRP | 0.388
57 | RRIRIRPPRLPRPRPRPPWGPRP | 0.0517
58 | RRIRIRPPRLPRPRPRPPWMPRP | -0.0904
59 | RRIRIRPPRLPRPRPRPPWSPRP | 0.219
60 | RRIRIRPPRLPRPRPRPPYFPRP | -0.25
61 | RRIRIRPPRLPRPRPRPPYVPRP | -0.121
62 | RRIRIRPPRLPRPRPRPQANPRP | 0.00435
63 | RRIRIRPPRLPRPRPRPQCQPRP | -0.153
64 | RRIRIRPPRLPRPRPRPQELPRP | -0.169
65 | RRIRIRPPRLPRPRPRPQEWPRP | -0.0108
66 | RRIRIRPPRLPRPRPRPQFEPRP | -0.0601
67 | RRIRIRPPRLPRPRPRPQHTPRP | -1
68 | RRIRIRPPRLPRPRPRPQIQPRP | -0.235
69 | RRIRIRPPRLPRPRPRPQISPRP | 0.0222
70 | RRIRIRPPRLPRPRPRPQKFPRP | -0.0902
71 | RRIRIRPPRLPRPRPRPQKYPRP | -0.784
72 | RRIRIRPPRLPRPRPRPQLLPRP | -0.0818
73 | RRIRIRPPRLPRPRPRPQLQPRP | -0.0769
74 | RRIRIRPPRLPRPRPRPQMFPRP | -0.65
75 | RRIRIRPPRLPRPRPRPQNDPRP | -0.296

Row | Sequence | shrunken log2 fold change
76 | RRIRIRPPRLPRPRPRPQNFPRP | 0.0159
77 | RRIRIRPPRLPRPRPRPQPMPRP | 0.604
78 | RRIRIRPPRLPRPRPRPQQGPRP | -0.295
79 | RRIRIRPPRLPRPRPRPQQKPRP | 0.0242
80 | RRIRIRPPRLPRPRPRPQQNPRP | -0.318
81 | RRIRIRPPRLPRPRPRPQRGPRP | 0.0568
82 | RRIRIRPPRLPRPRPRPQVIPRP | -0.0417
83 | RRIRIRPPRLPRPRPRPQVVPRP | -0.0262
84 | RRIRIRPPRLPRPRPRPQWKPRP | -0.186
85 | RRIRIRPPRLPRPRPRPQWLPRP | -0.0168
86 | RRIRIRPPRLPRPRPRPQWMPRP | -0.103
87 | RRIRIRPPRLPRPRPRPQYLPRP | -0.346
88 | RRIRIRPPRLPRPRPRPQYMPRP | -1.02
89 | RRIRIRPPRLPRPRPRPRCDPRP | -0.0753
90 | RRIRIRPPRLPRPRPRPRCMPRP | -0.284
91 | RRIRIRPPRLPRPRPRPRCPPRP | 0.0321
92 | RRIRIRPPRLPRPRPRPRCRPRP | -0.164
93 | RRIRIRPPRLPRPRPRPRCYPRP | -0.586
94 | RRIRIRPPRLPRPRPRPRDHPRP | -0.0591
95 | RRIRIRPPRLPRPRPRPRDVPRP | 0.000408
96 | RRIRIRPPRLPRPRPRPRECPRP | 0.146
97 | RRIRIRPPRLPRPRPRPREIPRP | -0.0162
98 | RRIRIRPPRLPRPRPRPRELPRP | -0.019
99 | RRIRIRPPRLPRPRPRPRFCPRP | -0.00189
100 | RRIRIRPPRLPRPRPRPRFRPRP | 0.0756

Row | Sequence | shrunken log2 fold change
101 | RRIRIRPPRLPRPRPRPRGHPRP | -0.114
102 | RRIRIRPPRLPRPRPRPRKIPRP | -0.413
103 | RRIRIRPPRLPRPRPRPRNKPRP | -0.0432
104 | RRIRIRPPRLPRPRPRPRNWPRP | 0.18
105 | RRIRIRPPRLPRPRPRPRPLPRP | 0.181
106 | RRIRIRPPRLPRPRPRPRPYPRP | -0.332
107 | RRIRIRPPRLPRPRPRPRQEPRP | -0.131
108 | RRIRIRPPRLPRPRPRPRQSPRP | 0.065
109 | RRIRIRPPRLPRPRPRPRQWPRP | 0.159
110 | RRIRIRPPRLPRPRPRPRRCPRP | 0.221
111 | RRIRIRPPRLPRPRPRPRRFPRP | -0.00443
112 | RRIRIRPPRLPRPRPRPRRVPRP | -0.0339
113 | RRIRIRPPRLPRPRPRPRSCPRP | 0.16
114 | RRIRIRPPRLPRPRPRPRWFPRP | 0.555
115 | RRIRIRPPRLPRPRPRPRWWPRP | 0.655
116 | RRIRIRPPRLPRPRPRPRYFPRP | -0.769
117 | RRIRIRPPRLPRPRPRPRYTPRP | -0.156
118 | RRIRIRPPRLPRPRPRPSDLPRP | -0.0735
119 | RRIRIRPPRLPRPRPRPSEKPRP | -0.195
120 | RRIRIRPPRLPRPRPRPSEWPRP | 0.151
121 | RRIRIRPPRLPRPRPRPSFPPRP | -0.779
122 | RRIRIRPPRLPRPRPRPSGAPRP | 0.0148
123 | RRIRIRPPRLPRPRPRPSHSPRP | -1.02
124 | RRIRIRPPRLPRPRPRPSINPRP | -1.03
125 | RRIRIRPPRLPRPRPRPSKTPRP | 0.0676

Row | Sequence | shrunken log2 fold change
126 | RRIRIRPPRLPRPRPRPSLPPRP | -0.491
127 | RRIRIRPPRLPRPRPRPSMAPRP | -0.531
128 | RRIRIRPPRLPRPRPRPSMHPRP | -0.511
129 | RRIRIRPPRLPRPRPRPSNLPRP | -0.931
130 | RRIRIRPPRLPRPRPRPSPAPRP | -0.11
131 | RRIRIRPPRLPRPRPRPSQVPRP | -0.186
132 | RRIRIRPPRLPRPRPRPSRLPRP | -0.0995
133 | RRIRIRPPRLPRPRPRPSRPPRP | -0.00676
134 | RRIRIRPPRLPRPRPRPSSMPRP | -0.432
135 | RRIRIRPPRLPRPRPRPSTVPRP | -0.566
136 | RRIRIRPPRLPRPRPRPSYEPRP | -0.53
137 | RRIRIRPPRLPRPRPRPSYNPRP | -1.15
138 | RRIRIRPPRLPRPRPRPTAMPRP | -0.191
139 | RRIRIRPPRLPRPRPRPTAPPRP | 0.0608
140 | RRIRIRPPRLPRPRPRPTCMPRP | -0.059
141 | RRIRIRPPRLPRPRPRPTDDPRP | -0.217
142 | RRIRIRPPRLPRPRPRPTDKPRP | -0.406
143 | RRIRIRPPRLPRPRPRPTDPPRP | -0.223
144 | RRIRIRPPRLPRPRPRPTEAPRP | -0.153
145 | RRIRIRPPRLPRPRPRPTEQPRP | -0.348
146 | RRIRIRPPRLPRPRPRPTGPPRP | -0.0249
147 | RRIRIRPPRLPRPRPRPTHIPRP | -0.495
148 | RRIRIRPPRLPRPRPRPTIGPRP | -0.396
149 | RRIRIRPPRLPRPRPRPTINPRP | -0.65
150 | RRIRIRPPRLPRPRPRPTKLPRP | -0.406
